B1: ESRRA (parent)
chain: LGVAQRSLPLQDELAFAEDLVLDE
B2: LMNB1 (parent)
chain: LYKEELEQTYHAKLENARLSSEMN

Variants of: B1
Experiment: protein stability index of a GFP-peptide fusion (GPS, HEK-293T) (PSI 1-6); higher = more stable
Details: c terminus: a fixed tail appended
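Also: lentivirally expressed fusions sorted by FACS into six bins by GFP to DsRed ratio, PSI derived from sequencing read proportions per bin multiplied by bin number.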

| Variant | protein stability index |
| --- | --- |
| E18P | 4.64 |
| E18R | 5.04 |
| E18Q | 4.34 |
| E18Y | 3.48 |
| E18T | 4.81 |
| E18S | 4.4 |
| E18W | 3.11 |
| E18V | 3.65 |
| D23W | 2.1 |
| D23A | 3.11 |
| D23I | 1.51 |
| D23G | 1.72 |
| D23L | 2.64 |
| D23Y | 2.3 |
| D23P | 4.49 |
| D23M | 2.01 |
| D23H | 2.34 |
| D23C | 2.38 |
| D23T | 3.21 |
| D23S | 2.58 |
| D23V | 1.88 |
| D23N | 1.88 |
| D23F | 5.28 |
| D23K | 2.41 |
| D23R | 2.51 |

| Variant | protein stability index |
| --- | --- |
| D23E | 2.65 |
| D23Q | 1.74 |
| V21Q | 5.24 |
| V21R | 4.83 |
| V21Y | 4.61 |
| V21N | 5.49 |
| V21P | 5.27 |
| V21G | 5.31 |
| V21A | 5.06 |
| V21K | 5.28 |
| V21D | 5.76 |
| V21C | 4.31 |
| V21H | 5.28 |
| V21W | 4.03 |
| V21L | 3.96 |
| V21I | 1.56 |
| V21T | 5.39 |
| V21S | 4.43 |
| V21M | 4.49 |
| V21E | 5.31 |
| V21F | 4.63 |
| L22I | 3.55 |
| L22G | 5.51 |
| L22S | 5.02 |
| L22H | 3.52 |

| Variant | protein stability index |
| --- | --- |
| L22P | 5.34 |
| L22Q | 3.81 |
| L22T | 5.18 |
| L22F | 3.95 |
| L22W | 3.85 |
| L22E | 5.71 |
| L22D | 5.13 |
| L22N | 4.69 |
| L22C | 3.76 |
| L22K | 2.74 |
| L22V | 4.14 |
| L22Y | 3.98 |
| L22M | 4.2 |
| L22R | 2.89 |
| L22A | 3.96 |
| L20H | 4.81 |
| L20R | 4.19 |
| L20V | 3.67 |
| L20C | 2.51 |
| L20K | 4.98 |
| L20Q | 4.21 |
| L20I | 3.18 |
| L20E | 3.12 |
| L20F | 4.98 |
| L20Y | 4.67 |

| Variant | protein stability index |
| --- | --- |
| L20D | 5.36 |
| L20M | 2.16 |
| L20S | 4.4 |
| L20G | 5.51 |
| L20T | 5.16 |
| L20P | 5.75 |
| L20N | 4.85 |
| L20W | 4.82 |
| L20A | 4.42 |
| E24R | 3.38 |
| E24N | 3.24 |
| E24S | 3.13 |
| E24Q | 3.67 |
| E24M | 2.95 |
| E24A | 1.89 |
| E24V | 2.21 |
| E24H | 2.57 |
| E24F | 2.42 |
| E24G | 4.13 |
| E24D | 4.07 |
| E24Y | 2.53 |
| E24L | 2.3 |
| E24P | 3.92 |
| E24I | 3.34 |
| E24K | 4.02 |

| Variant | protein stability index |
| --- | --- |
| E24W | 2.21 |
| E24T | 3.11 |
| E24C | 1.66 |
| D19H | 1.83 |
| D19G | 2.05 |
| D19I | 1.94 |
| D19N | 1.76 |
| D19C | 1.82 |
| D19T | 1.91 |
| D19Q | 3.58 |
| D19P | 4.89 |
| D19F | 2.56 |
| D19K | 2.49 |
| D19M | 2.43 |
| D19E | 2.34 |
| D19Y | 2.03 |
| D19S | 2.21 |
| D19L | 2.16 |
| D19A | 1.89 |
| D19R | 2.01 |
| D19V | 1.76 |
| D19W | 2.23 |

Variants of: B2
Experiment: as above
Details: c terminus: a fixed tail appended

| Variant | protein stability index |
| --- | --- |
| E4P | 3.68 |
| E4L | 2.17 |
| E4H | 2.94 |
| E4C | 2.38 |
| E4M | 2.18 |
| E4N | 3.27 |
| E4A | 2.7 |
| E4K | 2.46 |
| E4W | 1.55 |
| E4I | 2.02 |
| E4R | 2.51 |
| E4D | 2.69 |
| E4S | 2.94 |
| E4G | 2.38 |
| E4Q | 2.56 |
| E4T | 3.06 |
| E4Y | 2.08 |
| E4F | 2.37 |
| E4V | 2.97 |
| T9M | 2.65 |
| T9L | 2.16 |
| T9P | 4.23 |
| T9Y | 3.31 |
| T9C | 3.12 |

| Variant | protein stability index |
| --- | --- |
| T9H | 2.7 |
| T9N | 3.88 |
| T9E | 4.24 |
| T9D | 4.61 |
| T9Q | 3.77 |
| T9I | 2.6 |
| T9W | 3.65 |
| T9S | 3.92 |
| T9V | 2.61 |
| T9F | 2.57 |
| T9R | 3.64 |
| T9K | 3.1 |
| T9A | 3.59 |
| L6V | 4.34 |
| L6Y | 4.48 |
| L6E | 4.49 |
| L6H | 4.26 |
| L6F | 3.21 |
| L6K | 4.4 |
| L6C | 3.8 |
| L6Q | 5.03 |
| L6G | 3.81 |
| L6S | 4.7 |
| L6M | 4.03 |

| Variant | protein stability index |
| --- | --- |
| L6W | 4.74 |
| L6A | 4.29 |
| L6D | 4.72 |
| L6T | 4.75 |
| L6P | 4.39 |
| L6R | 4.38 |
| L6N | 4.57 |
| L6I | 3.46 |
| E7S | 2.72 |
| E7W | 2.34 |
| E7V | 3.05 |
| E7I | 2.84 |
| E7L | 3.17 |
| E7F | 1.83 |
| E7N | 3.38 |
| E7Q | 3.4 |
| E7D | 3.52 |
| E7C | 2.11 |
| E7R | 3.44 |
| E7P | 3.35 |
| E7H | 2.53 |
| E7M | 2.07 |
| E7K | 2.77 |
| E7T | 3.26 |

| Variant | protein stability index |
| --- | --- |
| E7Y | 2.38 |
| E7G | 3.23 |
| E7A | 2.47 |
| Q8L | 2.38 |
| Q8F | 2.09 |
| Q8C | 2.86 |
| Q8S | 2.56 |
| Q8A | 2.19 |
| Q8V | 2.09 |
| Q8K | 2.49 |
| Q8N | 2.8 |
| Q8R | 2.81 |
| Q8W | 1.71 |
| Q8P | 3.84 |
| Q8Y | 2.45 |
| Q8D | 3.46 |
| Q8E | 3.15 |
| Q8I | 2.52 |
| Q8M | 2.5 |
| Q8T | 3.21 |
| Q8H | 2.08 |
| L1Q | 3.6 |
| L1T | 2.85 |
| L1V | 2.75 |

| Variant | protein stability index |
| --- | --- |
| L1P | 4.45 |
| L1R | 2.91 |
| L1E | 3.99 |
| L1H | 3.19 |
| L1N | 2.98 |
| L1G | 3.53 |
| L1A | 2.92 |
| L1M | 3.06 |
| L1S | 2.9 |
| L1K | 2.97 |
| L1C | 3.14 |
| L1I | 2.5 |
| L1W | 2.21 |
| L1D | 4.03 |
| L1F | 2.27 |
| L1Y | 3.24 |
| E5K | 3.09 |
| E5Y | 3.37 |
| E5Q | 1.54 |
| E5G | 2.46 |
| E5M | 2.42 |
| E5L | 3.89 |
| E5R | 1.76 |
| E5V | 2.77 |

| Variant | protein stability index |
| --- | --- |
| E5S | 2.4 |
| E5A | 2.28 |
| E5D | 3.01 |
| E5I | 1.82 |
| E5H | 2.27 |
| E5N | 2.53 |
| E5P | 3.1 |
| E5T | 1.83 |
| E5W | 1.37 |
| E5F | 2.28 |
| E5C | 2.32 |
| Y2Q | 4.21 |
| Y2V | 1.77 |
| Y2E | 4.37 |
| Y2D | 4.18 |
| Y2M | 2.31 |
| Y2H | 4 |
| Y2W | 1.5 |
| Y2T | 4.08 |
| Y2K | 3.27 |
| Y2P | 3.06 |
| Y2S | 4.12 |
| Y2F | 1.96 |
| Y2A | 2.91 |

| Variant | protein stability index |
| --- | --- |
| Y2G | 4.15 |
| Y2I | 2.09 |
| Y2R | 3.48 |
| Y2C | 2.78 |
| Y2L | 3.04 |
| Y2N | 3.46 |
| Y10C | 4.16 |
| Y10Q | 4.79 |
| Y10S | 4.49 |
| Y10G | 4.52 |
| Y10A | 4.25 |
| Y10T | 4.66 |
| Y10V | 4.49 |
| Y10E | 5.55 |
| Y10I | 4.17 |
| Y10L | 4.23 |
| Y10K | 5.14 |
| Y10F | 3.67 |
| Y10H | 4.8 |
| Y10N | 4.67 |
| Y10D | 4.97 |
| Y10W | 2.63 |
| Y10M | 4.27 |
| Y10P | 4.4 |

| Variant | protein stability index |
| --- | --- |
| Y10R | 4.48 |
| H11V | 3.53 |
| H11N | 3.14 |
| H11P | 3.91 |
| H11K | 2.4 |
| H11S | 4.06 |
| H11F | 3.29 |
| H11Y | 2.48 |
| H11D | 4.95 |
| H11T | 4.16 |
| H11C | 3.73 |
| H11L | 2.84 |
| H11M | 3.45 |
| H11W | 3.08 |
| H11Q | 4.24 |
| H11E | 4.71 |
| H11A | 3.81 |
| H11R | 2.88 |
| H11I | 3.12 |
| K3R | 2.9 |
| K3G | 2.73 |
| K3S | 2.65 |
| K3V | 1.67 |
| K3M | 1.7 |

| Variant | protein stability index |
| --- | --- |
| K3T | 2.81 |
| K3W | 1.61 |
| K3E | 2.47 |
| K3I | 2.19 |
| K3P | 3.09 |
| K3H | 2.91 |
| K3C | 2.64 |
| K3L | 1.79 |
| K3F | 1.77 |
| K3Y | 2.34 |
| K3Q | 2.56 |
| K3D | 3.56 |
| K3A | 1.94 |
| K3N | 3.29 |
| A12C | 2.09 |
| A12G | 3.44 |
| A12H | 3.71 |
| A12D | 4.61 |
| A12E | 4.72 |
| A12I | 2.87 |

From the supplement of paper PMC10567573
